In the FLAb antibody collection (doi:10.7554/elife.23156) one finds Kd and yeast surface expression data, which are given here for 58 variants.

B1: scFv; the commonest letter at each place (parent)
chain 1: EVKLDETGGGLVQPGRPMKLSCVASGFTFSDYWMNWVRQSPEKGLEWVAQIRNKPYNYETYYSDSVKGRFTISRDDSKSSVYLQMNNLRVEDMGIYYCTGSYYGMDYWGQGTSVTVS
chain 2: DVVMTQTPLSLPVSLGDQASISCRSSQSLVHSNGNTYLRWYLQKPGQSPKVLIYKVSNRFSGVPDRFSGSGSGTDFTLKISRVEAEDLGVYFCSQSTHVPWTFGGGTKLEIK

In data set [1] the parent is B1. Put plainly: Kd (Tite-Seq). The settings on record: with fluorescein; format: scFv 4-4-20, heavy + light.
Variants of B1 are the subject of data set [2]. Put plainly: yeast surface expression (ratio to wild type); higher = more expressed. The settings on record: format: scFv 4-4-20, heavy + light.

Broadly, the Kd is a measure of binding affinity in units of concentration. For chain 1 G100D D106W, in data set [1], the dissociation constant Kd was at least 10 µM. Also, the yeast surface expression in data set [2] was 0.254.
Consider chain 1 G100I Y103H, for which, in data set [1], the Kd is at least 10 µM. The yeast surface expression in data set [2] came to 0.94.
The corresponding values for chain 1 G100I Y103F are at least 10 µM and 0.932.
The corresponding values for chain 1 G100I Y103E are at least 10 µM and 0.879.
For chain 1 G100E S101V, in that order: at least 10 µM and 0.225.
Turning to chain 1 G100R G109C, the Kd in data set [1] was at least 10 µM. The yeast surface expression in data set [2] worked out at 0.173.
The corresponding values for chain 1 F29V Y32W M34W are 0.185 µM and 1.07.
For chain 1 G100R W108N, in that order: at least 10 µM and 0.348.
For chain 1 G100R W108C, in that order: at least 10 µM and 0.246.
As to chain 1 G100R W108Y, in data set [1], the Kd was at least 10 µM. Besides, the yeast surface expression in data set [2] was 0.478.
The corresponding values for chain 1 G100F M105D are at least 10 µM and 0.573.
For chain 1 G100F M105K, in that order: at least 10 µM and 1.1.
The corresponding values for chain 1 G100F D106K are at least 10 µM and 0.653.
Consider chain 1 G100E G104I, for which, in data set [1], the Kd is at least 10 µM. For the same variant, the yeast surface expression in data set [2] is 0.281.
For chain 1 G100E G109Y, in that order: at least 10 µM and 0.199.
For chain 1 G100K G109V, in that order: at least 10 µM and 0.188.
The corresponding values for chain 1 G100D W108R are at least 10 µM and 0.146.
As to chain 1 G100K Y107V, the dissociation constant Kd in data set [1] is at least 10 µM. Besides, the yeast surface expression in data set [2] was determined as 0.3.
With chain 1 G100F S101T G104Y, in data set [1], the Kd was at least 10 µM. Besides, the yeast surface expression in data set [2] amounted to 0.437.
Consider chain 1 G100E M105D, for which the Kd in data set [1] was at least 10 µM. Also, in data set [2], the yeast surface expression stood at 0.296.
For the variant chain 1 G100F Y102D, the Kd in data set [1] was at least 10 µM. In data set [2], the yeast surface expression was determined as 0.974.
The corresponding values for chain 1 G100C M105F are at least 10 µM and 0.642.
chain 1 F29W N35G: the Kd in data set [1] is at least 10 µM. Also, in data set [2], the yeast surface expression worked out at 0.71.
Take chain 1 G100Q G109M: the dissociation constant (Kd) in data set [1] was at least 10 µM. In addition, the yeast surface expression in data set [2] stood at 0.223.
The corresponding values for chain 1 G100Q G109E are at least 10 µM and 0.304.
For chain 1 G100Q G109C, in that order: at least 10 µM and 0.226.
The corresponding values for chain 1 F29W are 0.0562 µM and 0.661.
As for chain 1 F29Y, the Kd in data set [1] came out at 0.000783 µM. The yeast surface expression in data set [2] worked out at 0.978.
The corresponding values for chain 1 G100F G109V are at least 10 µM and 0.253.
The corresponding values for chain 1 G100F G109K are at least 10 µM and 0.265.
For chain 1 G100F G109N, in that order: at least 10 µM and 0.41.
With chain 1 G100N Y102N, in data set [1], the Kd is at least 10 µM. Further, the yeast surface expression in data set [2] turned out to be 0.643.
The corresponding values for chain 1 G100N Y102Q are at least 10 µM and 0.746.
For chain 1 F29W D31H, in that order: 0.0221 µM and 0.626.
For chain 1 F29W D31G, in that order: 5.37 µM and 0.567.
For the variant chain 1 F29W D31F, in data set [1], the Kd is at least 10 µM. Besides, in data set [2], the yeast surface expression was 0.475.
The corresponding values for chain 1 F29Y S30D are 0.0038 µM and 0.937.
The corresponding values for chain 1 G100C G104I are at least 10 µM and 0.267.
In the case of chain 1 G100I Y107D, the Kd in data set [1] is at least 10 µM. Besides, the yeast surface expression in data set [2] turned out to be 0.381.
For the variant chain 1 G100I Y107P, the Kd in data set [1] is at least 10 µM. Besides, the yeast surface expression in data set [2] was 0.276.
For chain 1 G100I Y107E, in that order: at least 10 µM and 0.689.
For the variant chain 1 G100I G109I, in data set [1], the Kd was at least 10 µM. Further, in data set [2], the yeast surface expression was found to be 0.25.
For chain 1 G100I G109A, in that order: at least 10 µM and 0.429.
For chain 1 G100L D106L, in that order: at least 10 µM and 0.395.
For chain 1 G100C Y102A, in that order: 0.00279 µM and 1.47.
As for chain 1 G100A G104L D106M, the Kd in data set [1] is at least 10 µM. In addition, the yeast surface expression in data set [2] turned out to be 0.244.
For chain 1 G100N Y102D G109M, in that order: at least 10 µM and 0.159.
The corresponding values for chain 1 G100M Y107G are at least 10 µM and 0.575.
As to chain 1 G100M Y107T, the Kd in data set [1] was at least 10 µM. In addition, the yeast surface expression in data set [2] amounted to 0.729.
Consider chain 1 F29W S30V N35H, for which the Kd in data set [1] is at least 10 µM. Further, in data set [2], the yeast surface expression stood at 0.547.
For chain 1 G100P D106A, in that order: at least 10 µM and 0.627.
The corresponding values for chain 1 G100P D106M are at least 10 µM and 0.537.
For chain 1 G100M S101V, in that order: at least 10 µM and 0.549.
As for chain 1 G100P Y102W, the dissociation constant (Kd) in data set [1] was at least 10 µM. In addition, the yeast surface expression in data set [2] was 0.682.
The corresponding values for chain 1 G100L S101M are at least 10 µM and 0.474.
The corresponding values for chain 1 G100L S101K are at least 10 µM and 0.461.
For chain 1 G100M S101I G104T, in that order: at least 10 µM and 0.359.
As for chain 1 G100M G104P D106I, in data set [1], the equilibrium dissociation constant (Kd) was at least 10 µM. In data set [2], the yeast surface expression was determined as 0.361.
